Source: the supplement of paper PMC9112550, “Optimization of the antimicrobial peptide Bac7 by deep mutational scanning” (BMC Biology, 2022)

Tested on: Escherichia coli TOP10
Assay: shrunken log2 fold change of peptide-encoding DNA abundance (4.5 h post-induction vs induction); higher = less antimicrobial activity (less host growth inhibition)
Conditions: time post-induction: 4.5 h; library: site-saturation at positions 5, 18, 19, 20
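Further: peptides expressed intracellularly from a pBAD plasmid library in pooled LB shake-flask culture, induced with 0.3% L-arabinose, DNA abundance read by NGS, three biological replicates, DESeq2 with apeglm shrinkage.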

Sequence | shrunken log2 fold change
RRIRTRPPRLPRPRPRPVKKPRP | 0.0316
RRIRDRPPRLPRPRPRPRQHPRP | 0.153
RRIRQRPPRLPRPRPRPIHHPRP | -0.167
RRIRPRPPRLPRPRPRPITEPRP | -0.0543
RRIRDRPPRLPRPRPRPHVIPRP | -0.0856
RRIRIRPPRLPRPRPRPSVKPRP | -0.037
RRIRSRPPRLPRPRPRPYKNPRP | -0.399
RRIRFRPPRLPRPRPRPYSKPRP | -0.996
RRIRARPPRLPRPRPRPYGDPRP | -0.0672
RRIRIRPPRLPRPRPRPKSFPRP | 0.0398
RRIRQRPPRLPRPRPRPQYMPRP | -0.587
RRIRWRPPRLPRPRPRPRGCPRP | 0.961
RRIRTRPPRLPRPRPRPWQVPRP | -0.0764
RRIRPRPPRLPRPRPRPKLPPRP | 0.298
RRIRMRPPRLPRPRPRPYTAPRP | 0.147
RRIRIRPPRLPRPRPRPNNFPRP | -0.388
RRIRIRPPRLPRPRPRPSPSPRP | 0.0467
RRIRCRPPRLPRPRPRPNPPPRP | 0.557
RRIRMRPPRLPRPRPRPPHCPRP | 1.68
RRIRQRPPRLPRPRPRPACVPRP | 0.0809
RRIRCRPPRLPRPRPRPKCHPRP | 0.205
RRIRQRPPRLPRPRPRPPVIPRP | -0.498
RRIRWRPPRLPRPRPRPDRFPRP | 0.0986
RRIRDRPPRLPRPRPRPTQSPRP | 0.439
RRIRTRPPRLPRPRPRPCFSPRP | -0.3

Sequence | shrunken log2 fold change
RRIRMRPPRLPRPRPRPTMKPRP | 0.482
RRIRARPPRLPRPRPRPSQSPRP | 0.0538
RRIRERPPRLPRPRPRPKMQPRP | -0.0537
RRIRHRPPRLPRPRPRPMNHPRP | -0.738
RRIRIRPPRLPRPRPRPSGIPRP | -0.469
RRIRYRPPRLPRPRPRPPYWPRP | -0.22
RRIRHRPPRLPRPRPRPLSKPRP | -0.746
RRIRQRPPRLPRPRPRPECEPRP | 0.028
RRIRKRPPRLPRPRPRPTTWPRP | 0.414
RRIRWRPPRLPRPRPRPVELPRP | -0.00876
RRIRFRPPRLPRPRPRPRYYPRP | -0.617
RRIRFRPPRLPRPRPRPSCPPRP | -0.72
RRIRERPPRLPRPRPRPGFLPRP | -0.0604
RRIRCRPPRLPRPRPRPKESPRP | 0.0858
RRIRLRPPRLPRPRPRPHLFPRP | -0.0266
RRIRWRPPRLPRPRPRPHPFPRP | -0.42
RRIRGRPPRLPRPRPRPCYTPRP | 0.498
RRIRGRPPRLPRPRPRPYKFPRP | -0.138
RRIRKRPPRLPRPRPRPMANPRP | 0.0288
RRIRFRPPRLPRPRPRPWRYPRP | -0.161
RRIRVRPPRLPRPRPRPGGVPRP | 0.224
RRIRYRPPRLPRPRPRPTQWPRP | 0.413
RRIRTRPPRLPRPRPRPFRIPRP | -0.0114
RRIRYRPPRLPRPRPRPKDIPRP | -0.109
RRIRKRPPRLPRPRPRPDRRPRP | 0.18
